Measurements from the supplement of paper PMC11246515.
± gives the standard deviation of the averaged measurements.

Assay: total protein half-life in vivo (active degradation + dilution); higher = more stable protein
[1] = E. coli NCM3722 delta-clpP delta-lon delta-hslV, growth: N-lim chemostat, doubling time 6 h
[2] = E. coli NCM3722 delta-clpP, growth: N-lim chemostat, doubling time 6 h
[3] = E. coli NCM3722 delta-hslV, growth: N-lim chemostat, doubling time 6 h
[4] = E. coli NCM3722 delta-lon, growth: N-lim chemostat, doubling time 6 h
[5] = E. coli NCM3722 delta-smpB, growth: N-lim chemostat, doubling time 6 h
[6] = wild type E. coli NCM3722, growth: C-lim chemostat, doubling time 3 h
[7] = wild type E. coli NCM3722, growth: C-lim chemostat, doubling time 6 h
[8] = wild type E. coli NCM3722, growth: C-lim chemostat, doubling time 12 h
[9] = wild type E. coli NCM3722, growth: N-lim chemostat, doubling time 6 h
[10] = wild type E. coli NCM3722, growth: N-lim chemostat, doubling time 12 h
[11] = wild type E. coli NCM3722, growth: P-lim chemostat, doubling time 6 h
[12] = wild type E. coli NCM3722, growth: P-lim chemostat, doubling time 12 h

| Sequence | total protein half-life in vivo [1] [h] | total protein half-life in vivo [2] [h] | total protein half-life in vivo [3] [h] | total protein half-life in vivo [4] [h] | total protein half-life in vivo [5] [h] | total protein half-life in vivo [6] [h] | total protein half-life in vivo [7] [h] | total protein half-life in vivo [8] [h] | total protein half-life in vivo [9] [h] | total protein half-life in vivo [10] [h] | total protein half-life in vivo [11] [h] | total protein half-life in vivo [12] [h] |
| --- | --- | --- | --- | --- | --- | --- | --- | --- | --- | --- | --- | --- |
| MNRRRKLLIPLLFCGAMLTACDDKSAENAAAMTPEVGVVTLSPGSVNVLSELPGRTVPYEVAEIRPQVGGIIIKRNFIEGDKVNQGDSLYQIDPAPLQAELNSAKGSLAKALSTASNARITFNRQASLLKTNYVSRQDYDTARTQLNEAEANVTVAKAAVEQATINLQYANVTSPITGVSGKSSVTVGALVTANQADSLVTVQRLDPIYVDLTQSVQDFLRMKEEVASGQIKQVQGSTPVQLNLENGKRYSQTGTLKFSDPTVDETTGSVTLRAIFPNPNGDLLPGMYVTALVDEGSRQNVLLVPQEGVTHNAQGKATALILDKDDVVQLREIEASKAIGDQWVVTSGLQAGDRVIVSGLQRIRPGIKARAISSSQENASTESKQ | 5.76 ± 0.3 | 6.22 ± 0.68 | 6.15 ± 0.1 | 6.24 ± 0.35 | 5.05 ± 0.34 | 2.98 | 6.09 | > 16 | 5.92 ± 0.32 | 10.6 ± 0.88 | 3.99 ± 0.38 | 8.12 ± 0.25 |
| MNSLQILSFVGFTLLVAVITWWKVRKTDTGSQQGYFLAGRSLKAPVIAASLMLTNLSTEQLVGLSGQAYKSGMSVMGWEVTSAVTLIFLALIFLPRYLKRGIATIPDFLEERYDKTTRIIIDFCFLIATGVCFLPIVLYSGALALNSLFHVGESLQISHGAAIWLLVILLGLAGILYAVIGGLRAMAVADSINGIGLVIGGLMVPVFGLIAMGKGSFMQGIEQLTTVHAEKLNSIGGPTDPLPIGAAFTGLILVNTFYWCTNQGIVQRTLASKSLAEGQKGALLTAVLKMLDPLVLVLPGLIAFHLYQDLPKADMAYPTLVNNVLPVPMVGFFGAVLFGAVISTFNGFLNSASTLFSMGIYRRIINQNAEPQQLVTVGRKFGFFIAIVSVLVAPWIANAPQGLYSWMKQLNGIYNVPLVTIIIMGFFFPRIPALAAKVAMGIGIISYITINYLVKFDFHFLYVLACTFCINVVVMLVIGFIKPRATPFTFKDAFAVDMKPWKNVKIASIGILFAMIGVYAGLAEFGGYGTRWLAMISYFIAAVVIVYLIFDSWRHRHDPAVTFTPDGKDSL | 3.19 | – | – | – | – | – | – | – | – | – | – | – |
| MNTISSLETTDLPAAYHIEQRAHAFPWSEKTFASNQGERYLNFQLTQNGKMAAFAITQVVLDEATLFNIAVDPDYQRQGLGRALLEHLIDELEKRGVATLWLEVRASNAAAIALYESLGFNEATIRRNYYPTTDGREDAIIMALPISM [P0A944] | 5.64 | 4.51 | – | 4.5 ± 0.79 | 3.85 | > 4 | – | 15.9 | 3.845 ± 0.034 | 6.18 | 4.53 | 8.18 |
| MNTIVFVEDDAEVGSLIAAYLAKHDMQVTVEPRGDQAEETILRENPDLVLLDIMLPGKDGMTICRDLRAKWSGPIVLLTSLDSDMNHILALEMGACDYILKTTPPAVLLARLRLHLRQNEQATLTKGLQETSLTPYKALHFGTLTIDPINRVVTLANTEISLSTADFELLWELATHAGQIMDRDALLKNLRGVSYDGLDRSVDVAISRLRKKLLDNAAEPYRIKTVRNKGYLFAPHAWE | 5.2 ± 1.1 | 4.29 ± 0.89 | 3.1 ± 0.46 | 3.95 ± 0.079 | 3.58 ± 0.22 | 3.05 ± 0.78 | 5.03 ± 0.43 | 7.3 ± 0.64 | 3.662 ± 0.028 | 5.27 ± 0.083 | 4.82 ± 0.53 | 7.92 ± 0.17 |
| MNTNVFRLLLLGSLFSLSACVQQSEVRQMKHSVSTLNQEMTQLNQETVKITQQNRLNAKSSSGVYLLPGAKTPARLESQIGTLRMSLVNITPDADGTTLTLRIQGESNDPLPAFSGTVEYGQIQGTIDNFQEINVQNQLINAPASVLAPSDVDIPLQLKGISVDQLGFVRIHDIQPVMQ | 6.62 ± 0.76 | – | – | 6.77 ± 0.76 | 6.22 ± 0.65 | – | 5.54 ± 0.6 | 11.3 | 5.64 ± 1.1 | 13.9 | 6.02 ± 0.69 | 12.7 ± 1.5 |
| MNTPAQLSLPLYLPDDETFASFWPGDNSSLLAALQNVLRQEHSGYIYLWAREGAGRSHLLHAACAELSQRGDAVGYVPLDKRTWFVPEVLDGMEHLSLVCIDNIECIAGDELWEMAIFDLYNRILESGKTRLLITGDRPPRQLNLGLPDLASRLDWGQIYKLQPLSDEDKLQALQLRARLRGFELPEDVGRFLLKRLDREMRTLFMTLDQLDRASITAQRKLTIPFVKEILKL | 5.11 ± 0.35 | 4.947 ± 0.022 | 5.42 ± 0.81 | 4.21 ± 0.21 | 4.29 ± 0.12 | 2.74 ± 0.07 | 5.7 ± 1.3 | 9.48 ± 1.9 | 4.404 ± 0.034 | 7.28 ± 0.61 | 5.14 ± 0.064 | 10.6 ± 0.12 |
| MNTRQLLSVGIDIGTTTTQVIFSRLELVNRAAVSQVPRYEFIKREISWQSPVFFTPVDKQGGLKEAELKTLILEQYHAAGIEPESVDSGAIIITGESAKTRNARPAVMALSQSLGDFVVASAGPHLESVIAGHGAGAQTLSEQRLCRVLNIDIGGGTANYALFDAGKISGTACLNVGGRLLETDSHGRVVYAHKPGQMIVDECFGAGTDARSLTGAQLVQVTRRMAELIVEVIDGTLSPLAQALMQTGLLPAGVTPEIITLSGGVGECYRHQPADPFCFADIGPLLATALHDHPRLREMNVQFPAQTVRATVIGAGAHTLSLSGSTIWLEGVQLPLRNLPVAIPIDETDLVGAWQQALIQLDLDPKTDAYVLALPASLPVRYAAVLTVINALVDFVARFPNPHPLLVVAGQDFGKALGMLLRPQLQQLPLAVIDEVIVRAGDYIDIGTPLFGGSVVPVTVKSLAFPS | 5.67 | – | – | – | – | – | – | – | – | – | – | – |
| MNVNSSSNRGEAILAALKTQFPGAVLDEERQTPEQVTITVKINLLPDVVQYLYYQHDGWLPVLFGNDERTLNGHYAVYYALSMEGAEKCWIVVKALVDADSREFPSVTPRVPAAVWGEREIRDMYGLIPVGLPDQRRLVLPDDWPEDMHPLRKDAMDYRLRPEPTTDSETYPFINEGNSDARVIPVGPLHITSDEPGHFRLFVDGEQIVDADYRLFYVHRGMEKLAETRMGYNEVTFLSDRVCGICGFAHSVAYTNSVENALGIEVPQRAHTIRSILLEVERLHSHLLNLGLSCHFVGFDTGFMQFFRVREKSMTMAELLIGSRKTYGLNLIGGVRRDILKEQRLQTLKLVREMRADVSELVEMLLATPNMEQRTQGIGILDRQIARDLRFDHPYADYGNIPKTLFTFTGGDVFSRVMVRVKETFDSLAMLEFALDNMPDTPLLTEGFSYKPHAFALGFVEAPRGEDVHWSMLGDNQKLFRWRCRAATYANWPVLRYMLRGNTVSDAPLIIGSLDPCYSCTDRVTLVDVRKRQSKTVPYKEIERYGIDRNRSPLK | 7.09 | – | 5.63 | – | – | – | – | – | 5.27 | – | – | – |
